Residue numbers refer to the chain shown, from its start.
T1: Human TNC-A2 + avi-tag + his6-tag (human, biotinylated in vivo at the avi-tag)
T1 construct: also called hu TNC A2; A2 domain of human tenascin
T1 chain: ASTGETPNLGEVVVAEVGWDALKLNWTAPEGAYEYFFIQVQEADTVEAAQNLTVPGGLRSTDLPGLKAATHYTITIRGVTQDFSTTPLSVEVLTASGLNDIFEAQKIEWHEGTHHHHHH

T2: A1 domain of tenascin (TNC-A1), immobilized domain of Example 1 (UniProt P24821 1072-1162, limits assumed)
T2 construct: domain: A1; also called TNC-A1 domain
T2 sequence (looked up): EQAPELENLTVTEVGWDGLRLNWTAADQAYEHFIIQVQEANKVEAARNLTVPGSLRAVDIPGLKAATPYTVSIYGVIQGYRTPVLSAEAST

B1: 3F2 Fab (Fab, V domains shown)
VH: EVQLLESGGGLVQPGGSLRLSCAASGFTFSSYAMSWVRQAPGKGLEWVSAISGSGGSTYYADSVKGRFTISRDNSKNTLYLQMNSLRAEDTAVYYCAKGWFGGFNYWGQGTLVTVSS
VL: EIVLTQSPGTLSLYPGERATLSCRASQSVTSSYLAWYQQKPGQAPRLLINVGSRRATGIPDRFSGSGSGTDFTLTISRLEPEDFAVYYCQQGIMLPPTFGQGTKVEIK
notes: Fab fragment; also called clone 3F2
B2: 4G8 Fab (Fab, V domains shown)
VH: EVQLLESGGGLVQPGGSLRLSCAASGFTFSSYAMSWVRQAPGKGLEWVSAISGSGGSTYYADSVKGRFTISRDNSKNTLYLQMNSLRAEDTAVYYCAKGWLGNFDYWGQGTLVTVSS
VL: B1 VL with Y14S, T30S, S31R, N50I, V51G, G52A, R54T, I93Q, M94V, L95I
notes: Fab fragment; also called clone 4G8
B3: 4B3 Fab (Fab, V domains shown)
VH: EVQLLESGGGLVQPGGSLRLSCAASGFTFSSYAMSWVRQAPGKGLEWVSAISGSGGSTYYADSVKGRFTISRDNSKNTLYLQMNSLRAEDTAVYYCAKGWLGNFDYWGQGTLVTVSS
VL: EIVLTQSPGTLSLSPGERATLSCRASQSVSSNYLAWYQQKPGQAPRLLIYGAYIRATGIPDRFSGSGSGTDFTLTISRLEPEDFAVYYCQQGQVIPPTFGQGTKVEIK
notes: Fab fragment; also called clone 4B3
B4: 2B10_6A12 Fab (Fab, V domains shown)
VH: QVQLVQSGAEVKKPGSSVKVSCKASGGTFSSYAISWVRQAPGQGLEWMGVIIPILGTANYAQKFQGRVTITADKSTSTAYMELSSLRSEDTAVYYCARLYGYAYYGAFDYWGQGTTVTVSS
VL: DIQMTQSPSSLSASVGDRVTITCRASQGIRNDLGWYQQKPGKAPKRLIYAASSLQSGVPSRFSGSGSGTEFTLTISSLQPEDFATYYCLQNGLQPATFGQGTKVEIK
notes: also called clone 2B10-6A12
B5: 2B10_C3B6 Fab (Fab, V domains shown)
VH: B4 VH with V50A, T57I
VL: B4 VL
notes: also called clone 2B10_C3B6
B6: 2B10_O7D8 Fab (Fab, V domains shown)
VH: B4 VH with V50G, L55F
VL: B4 VL with G28S, D32V, A50D, A51V, S65G
notes: also called clone 2B10_O7D8
B7: 2B10_O1F7 Fab (Fab, V domains shown)
VH: B4 VH with V50G, L55F
VL: B4 VL with D32V, A50D, S65G
notes: also called clone 2B10_O1F7
B8: 2B10_C3A6 Fab (Fab, V domains shown)
VH: B4 VH with V50G, L55F
VL: B4 VL with D32V, A50D, A51S, S65G
notes: also called clone 2B10_C3A6
B9: 2B10_6H10 Fab (Fab, V domains shown)
VH: B4 VH with V50G, L55F
VL: B4 VL with D32V, Y49Q, S52T, S65G
notes: also called clone 2B10-6H10
B10: 29B11 Fab (Fab, V domains shown)
VH: EVQLLESGGGLVQPGGSLRLSCAASGFTFSSYAMSWVRQAPGKGLEWVSAIIGSGGITYYADSVKGRFTISRDNSKNTLYLQMNSLRAEDTAVYYCAKGWFGGFNYWGQGTLVTVSS
VL: B1 VL with Y14S
notes: also called clone 29B11
B11: 23C10 Fab (Fab, V domains shown)
VH: B10 VH with Y32S, I52S, G53T, S54N, G56N, I57Y, F101L, G103N, N105D
VL: B3 VL with S31R, N32S, Y50I, Y53S, I54T
notes: also called clone 23C10
B12: 22A3 Fab (Fab, V domains shown)
VH: B10 VH with G56S
VL: B1 VL with Y14S
notes: also called clone 22A3
B13: 28H1 Fab (Fab, V domains shown)
VH: EVQLLESGGGLVQPGGSLRLSCAASGFTFSSHAMSWVRQAPGKGLEWVSAIWASGEQYYADSVKGRFTISRDNSKNTLYLQMNSLRAEDTAVYYCAKGWLGNFDYWGQGTLVTVSS
VL: B3 VL with S31R, N32S, Y50I, Y53S, I54T
notes: also called clone 28H1
B14: 4B9 Fab (Fab, V domains shown)
VH: B10 VH with G56A, I57S
VL: B1 VL with Y14S
notes: also called clone 4B9
B15: 16F8 Fab (Fab, V domains shown)
VH: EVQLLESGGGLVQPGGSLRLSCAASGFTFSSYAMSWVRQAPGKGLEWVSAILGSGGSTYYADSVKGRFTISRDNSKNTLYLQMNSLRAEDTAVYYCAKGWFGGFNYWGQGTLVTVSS
VL: B1 VL with Y14S
notes: also called clone 16F8
B16: 20G8 Fab (Fab, V domains shown)
VH: B10 VH with G56S, I57R
VL: B1 VL with Y14S
notes: also called clone 20G8
B17: 5F1 Fab (Fab, V domains shown)
VH: B10 VH with G53S, G56A, I57S
VL: B1 VL with Y14S
notes: also called clone 5F1
B18: O2D7 Fab (Fab, V domains shown)
VH: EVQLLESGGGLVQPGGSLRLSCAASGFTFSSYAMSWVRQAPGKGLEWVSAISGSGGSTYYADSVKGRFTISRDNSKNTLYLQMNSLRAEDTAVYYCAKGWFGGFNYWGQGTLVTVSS
VL: B1 VL with Y14S, I59T, G92A
notes: also called clone O2D7
B19: 14B3 Fab (Fab, V domains shown)
VH: B10 VH with I52L, G53A, G56A
VL: B1 VL with Y14S
notes: also called clone 14B3
B20: 19G1 Fab (Fab, V domains shown)
VH: B10 VH with G53S, I57L
VL: B1 VL with Y14S
notes: also called clone 19G1
B21: 16F1 Fab (Fab, V domains shown)
VH: B10 VH with A50G
VL: B1 VL with Y14S
notes: also called clone 16F1
B22: 5B8 Fab (Fab, V domains shown)
VH: B10 VH with I52W, S54G, G56R, I57S
VL: B1 VL with Y14S
notes: also called clone 5B8
B23: O3C9 Fab (Fab, V domains shown)
VH: B10 VH with Y32F, A40S, G56S, I57N
VL: B1 VL with Y14S
notes: also called clone O3C9
B24: L19 IgG (L19 antibody in the human IgG1 format) (antibody, V domains shown)
VH: EVQLLESGGGLVQPGGSLRLSCAASGFTFSSFSMSWVRQAPGKGLEWVSSISGSSGTTYYADSVKGRFTISRDNSKNTLYLQMNSLRAEDTAVYYCAKPFPYFDYWGQGTLVTVSS
VL: B3 VL with N32S, G51Y, Y53S, I54S, G92T, Q93G, V94R
notes: Human IgG1 format; also called the IgG
B25: F16 IgG (antibody, V domains shown)
VH: B24 VH with S31R, F32Y, S33G, S50A, S55G, T57S, P99A, F100H, P101N, Y102A
VL: SSELTQDPAVSVALGQTVRITCQGDSLRSYYASWYQQKPGQAPVLVIYGKNNRPSGIPDRFSGSSSGNTASLTITGAQAEDEADYYCNSSVYTMPPVVFGGGTKLTVL
notes: The light chain entry is named generally (F16, light chain); also called the IgG molecule; copies: 2 + 2
B26: F16 Fab fragment (Fab, V domains shown)
VH: B24 VH with S31R, F32Y, S33G, S50A, S55G, T57S, P99A, F100H, P101N, Y102A
VL: SSELTQDPAVSVALGQTVRITCQGDSLRSYYASWYQQKPGQAPVLVIYGKNNRPSGIPDRFSGSSSGNTASLTITGAQAEDEADYYCNSSVYTMPPVVFGGGTKLTVLG
notes: also called monovalent Fab fragment of F16

Biological target: T3, Human FAP ectodomain + poly-lys-tag + his6-tag (human, UniProt Q12884 27-760)
T3 construct: also called hu FAP
Assay: first affinity maturation campaign: phage selections, ELISA and BIACORE kinetic screening

Q: Does B1 bind?
A: Result: binds

Q: Does B2 bind?
A: Result: binds

Q: Does B3 bind?
A: Result: binds

Biological target: T4, Murine FAP ectodomain + poly-lys-tag + his6-tag (murine, UniProt P97321 27-761)
T4 construct: also called mu FAP
Assay: as above

Q: Does B1 bind?
A: Result: binds

Q: Does B2 bind?
A: Result: binds

Q: Does B3 bind?
A: Result: binds

Biological target: T1, Human TNC-A2 + avi-tag + his6-tag
Assay: SPR (ProteOn XPR36), purified Fab, monovalent binding
Description: Selections were carried out against E. coli expressed human TNC A2 which was cloned upstream an avi-tag and 6×his-tag (see SEQ ID NO: 57 of Table 5). The antigen was biotinylated in vivo upon expression. Selections have been carried out in solution as described for the primary TNC A2 selections using decreasing concentrations of human TNC A2 ranging from 100 to 2 nM. After identification of affinity-matured clones by ELISA, secondary screenings were carried out using a ProteOn XPR36 biosensor (Biorad) and kinetic rate constants and affinities were determined analyzing affinity-purified Fab preparations on the same instrument.

Q: With B4 as the binder, how does the Kd read?
A: The Kd was 290 pM.

Q: Which Kd does the source give for B5 here?
A: Its Kd is 191 pM.

Q: Which Kd does the source give for B6 here?
A: The Kd was 147 pM.

Q: For B7, which Kd is on record?
A: The Kd was 56 pM.

Q: With B8 as the binder, how does the Kd read?
A: The Kd was 497 pM.

Q: With B9 as the binder, how does the Kd read?
A: The Kd was 810 pM.

Biological target: T5, Cynomolgus FAP (Cynomolgus)
T5 construct: construct not described; also called cyno FAP
Assay: as above

Q: For B10, which Kd is on record?
A: Its Kd is 23 pM.

Q: Which Kd does the source give for B11 here?
A: Its Kd is 990 pM.

Q: For B12, which Kd is on record?
A: Its Kd is 522 pM.

Biological target: T3, Human FAP ectodomain + poly-lys-tag + …
Assay: as above

Q: How did the Kd turn out when B10 was run?
A: The Kd was 35 pM.

Q: Which Kd does the source give for B13 here?
A: The Kd was 200 pM.

Q: With B11 as the binder, how does the Kd read?
A: The Kd was 1600 pM.

Q: B14 was tested. Which Kd did it give?
A: Its Kd is 157 pM.

Q: With B15 as the binder, how does the Kd read?
A: Its Kd is 301 pM.

Q: For B16, which Kd is on record?
A: Its Kd is 69 pM.

Q: B17 was tested. Which Kd did it give?
A: The Kd was 243 pM.

Q: Which Kd does the source give for B18 here?
A: The Kd was 619 pM.

Q: With B19 as the binder, how does the Kd read?
A: Its Kd is 377 pM.

Q: How did the Kd turn out when B20 was run?
A: The Kd was 76 pM.

Q: B21 was tested. Which Kd did it give?
A: The Kd was 193 pM.

Q: B12 was tested. Which Kd did it give?
A: The Kd was 34 pM.

Q: For B22, which Kd is on record?
A: The Kd was 690 pM.

Q: Which Kd does the source give for B23 here?
A: The Kd was 160 pM.

Biological target: T4, Murine FAP ectodomain + poly-lys-tag + …
Assay: as above

Q: Which Kd does the source give for B10 here?
A: Its Kd is 436 pM.

Q: Which Kd does the source give for B13 here?
A: Its Kd is 9 pM.

Q: Which Kd does the source give for B11 here?
A: The Kd was 125 pM.

Q: Which Kd does the source give for B14 here?
A: The Kd was 3300 pM.

Q: Which Kd does the source give for B15 here?
A: Its Kd is 3800 pM.

Q: For B16, which Kd is on record?
A: The Kd was 2800 pM.

Q: How did the Kd turn out when B17 was run?
A: The Kd was 4100 pM.

Q: For B18, which Kd is on record?
A: The Kd was 8300 pM.

Q: B19 was tested. Which Kd did it give?
A: The Kd was 3800 pM.

Q: For B20, which Kd is on record?
A: The Kd was 2600 pM.

Q: How did the Kd turn out when B21 was run?
A: The Kd was 3400 pM.

Q: For B12, which Kd is on record?
A: Its Kd is 655 pM.

Q: Which Kd does the source give for B22 here?
A: The Kd was 3200 pM.

Q: Which Kd does the source give for B23 here?
A: The Kd was 3700 pM.

Biological target: T6, Extra Domain B of fibronectin (EDB) (UniProt P02751 1266-1356)
T6 construct: domain: Extra Domain B; construct not described; also called fibronectin Ectodomain-B
T6 sequence (P02751 1266-1356 limits assumed): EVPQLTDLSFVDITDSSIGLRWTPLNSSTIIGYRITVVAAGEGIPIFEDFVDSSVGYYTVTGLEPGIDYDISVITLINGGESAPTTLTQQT
Assay: SPR (BIACORE), EDB immobilized on the chip, construct as analyte

Q: Which Kd does the source give for B24 here?
A: Its Kd is 260 pM.

Biological target: T7, DPPIV expressed on HEK293 or CHO cells (Homo sapiens (Human), UniProt P27487 1-766)
T7 construct: also called close homologue of FAP
Assay: binding to DPPIV-expressing HEK293 or CHO cells

Q: Does B10 bind?
A: Result: no binding

Q: Does B13 bind?
A: Result: no binding

Q: Does B11 bind?
A: Result: no binding

Q: Does B14 bind?
A: Result: no binding

Q: Does B15 bind?
A: Result: no binding

Q: Does B16 bind?
A: Result: no binding

Q: Does B17 bind?
A: Result: no binding

Q: Does B18 bind?
A: Result: no binding

Q: Does B19 bind?
A: Result: no binding

Q: Does B20 bind?
A: Result: no binding

Q: Does B21 bind?
A: Result: no binding

Q: Does B12 bind?
A: Result: no binding

Q: Does B22 bind?
A: Result: no binding

Q: Does B23 bind?
A: Result: no binding

Biological target: T6, Extra Domain B of fibronectin (EDB)
Assay: BIACORE SPR, EDB immobilized on the chip, analyte at 1.56, 3.125 and 6.25 nM

Q: Which Kd does the source give for B24 here?
A: Its Kd is 263 pM.

Q: What about the koff of the same binder?
A: Its koff is 0.000637 s⁻¹.

Q: What about the kon of the same binder?
A: Its kon is 2.42e+06 M⁻¹ s⁻¹.

Biological target: T2, A1 domain of tenascin (TNC-A1), …
Assay: SPR (BIACORE), TNC-A1 domain immobilized on the chip

Q: Which Kd does the source give for B25 here?
A: Its Kd is 2600 pM.

Q: And the “increase of affinity attributed to bivalency (IgG against Fab)” value?
A: Its value is 20 fold.

Q: Which Kd does the source give for B26 here?
A: Its Kd is 50000 pM.

Reference: patent US20110064751A1 (Hoffmann-La Roche, published 2011)
